From patent publication US12404345B2, “Humanized antibodies against iRHOM2” (SCIRHOM GMBH, priority 2021, dated 2025)

T1: human iRhom1 (Homo sapiens, UniProt Q96CC6)
T1 construct: expressed in transfected cells; host or cells: immortalized iRhom1/2-/- DKO mouse embryonic fibroblasts, pMSCV retroviral infection
T1 sequence (Q96CC6 1-855): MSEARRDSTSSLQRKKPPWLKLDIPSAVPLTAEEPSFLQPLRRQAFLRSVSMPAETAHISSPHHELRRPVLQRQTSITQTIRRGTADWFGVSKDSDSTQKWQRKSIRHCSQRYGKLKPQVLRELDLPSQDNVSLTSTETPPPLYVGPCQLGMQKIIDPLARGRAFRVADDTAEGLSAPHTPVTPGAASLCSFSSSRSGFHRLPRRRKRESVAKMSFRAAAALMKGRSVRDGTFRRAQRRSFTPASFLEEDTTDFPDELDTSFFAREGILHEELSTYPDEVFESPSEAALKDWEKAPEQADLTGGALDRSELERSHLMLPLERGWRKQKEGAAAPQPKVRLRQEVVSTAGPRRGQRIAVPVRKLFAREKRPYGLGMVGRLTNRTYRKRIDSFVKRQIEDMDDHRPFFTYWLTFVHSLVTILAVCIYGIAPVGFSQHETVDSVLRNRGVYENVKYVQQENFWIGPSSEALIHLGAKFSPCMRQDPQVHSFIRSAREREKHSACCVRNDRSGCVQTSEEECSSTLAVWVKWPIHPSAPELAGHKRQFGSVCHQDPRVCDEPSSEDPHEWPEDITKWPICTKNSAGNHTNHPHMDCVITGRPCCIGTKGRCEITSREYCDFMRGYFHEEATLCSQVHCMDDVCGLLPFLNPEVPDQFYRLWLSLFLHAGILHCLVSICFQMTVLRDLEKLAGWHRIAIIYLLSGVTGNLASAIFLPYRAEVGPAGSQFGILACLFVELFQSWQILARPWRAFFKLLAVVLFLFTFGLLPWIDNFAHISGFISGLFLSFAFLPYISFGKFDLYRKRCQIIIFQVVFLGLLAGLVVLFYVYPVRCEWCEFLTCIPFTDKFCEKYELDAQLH


Molecular target: T1, human iRhom1
Assay: FACS binding specificity on MEF-DKO-hiR1-FL-WT-T7 cells
Conditions: antibody at 3 μg/ml
Protocol: Due to the sequence homology of the human iRhom2 protein versus its closely related family member human iRhom1 (referring to the NCBI reference sequence NP_078875.4. for human iRhom2 and the NCBI reference sequence NP_071895.3 for human iRhom1, the amino acid sequence identity for the extracellular loops 1, 2, 3 and the C-terminal tail of human iRhom2 versus human iRhom1 are calculated as 67.4%, 100.00%, 80.00% and 63.64%, respectively), the binding specificity of the humanized antibodies 16-B-03, 16-B-05, 16-B-07, 23-B-04, 42-B-02, 42-B-04 of the invention for human iRhom2 versus human iRhom1 was assessed as a next step. For this purpose, iRhom1/2−/− DKO MEFs stably expressing a tagged form of human iRhom1 were generated.
In brief, on day 1, Phoenix-ECO cells (American Type Culture Collection, USA) were seeded on 6-well tissue culture plates (Greiner, Germany) in standard growth medium at 8×10^5 cells per well and kept overnight at 37° C., 5% CO2. On day 2, the medium was replaced by fresh medium supplemented with chloroquine (Sigma-Aldrich, USA) at a final concentration of 25 μM. Applying the calcium phosphate method, cells were transfected with 2 μg/ml of pMSCV-hiR1-FL-WT-T7 (SEQ ID NO 50) encoding human iRhom1 full length wild type C-terminally tagged with 3 consecutive copies of the T7 epitope, and were kept at 37° C., 5% CO2. After 7 hours, the transfections were stopped by replacing cell supernatants with standard growth medium lacking chloroquine, and cells were incubated at 37° C., 5% CO2 to allow virus production overnight. In parallel, immortalized iRhom1/2−/− DKO MEFs as target cells for retroviral infection were seeded on 6-well tissue culture plates (Greiner, Germany) in standard growth medium at 1×10^5 cells per well and were also kept overnight at 37° C., 5% CO2. On day 3, the supernatants of Phoenix-ECO cells releasing pMSCV-hiR1-FL-WT-T7 ecotrophic virus were collected, filtered with 0.45 μm CA filters, and supplemented with 4 μg/ml of polybrene (Sigma-Aldrich, USA). Upon removal of medium from the immortalized iRhom1/2−/− DKO MEFs, these supernatants were added to the target cells for 4 hours at 37° C., 5% CO2 for first infection. Simultaneously, Phoenix-ECO cells were re-incubated with fresh medium, which, after another 4 hours, was filtered and used for the second infection of the respective target cell populations, again in the presence of 4 μg/ml of polybrene. Likewise, a third, but overnight infection cycle was performed. On day 4, virus containing cell supernatants were replaced by fresh standard growth medium. From day 5 onwards, cells were grown in the presence of 2 mg/ml of geneticin (G418, Thermo Fisher Scientific, USA) for the selection of immortalized MEF-DKO-hiR1-FL-WT-T7 cells stably expressing human iRhom1 full length wild type C-terminally tagged with 3 consecutive copies of the T7 epitope. Upon propagation, cells were stocked for future usage.
In brief, in addition to immortalized MEF-DKO-EV control cells and MEF-DKO-hiR2-FL-WT-T7 cells (as already described in example 3), MEF-DKO-hiR1-FL-WT-T7 cells were harvested with 10 mM EDTA in PBS, washed and resuspended in FACS buffer (PBS, 3% FBS, 0.05% sodium azide), and seeded in Nunc U-bottom 96-well plates (Thermo Fisher Scientific, USA) at approximately 3×10^5 cells per well. To pellet cells and remove supernatants, the plates were centrifuged at 1,500 rpm and 4° C. for 3 minutes. For primary staining, cells were resuspended in 100 μl per well of either FACS buffer alone (controls), mouse monoclonal anti-T7 IgG (Merck Millipore, USA) at 3 μg/ml FACS buffer or the humanized antibodies 16-B-03, 16-B-05, 16-B-07, 23-B-04, 42-B-02, 42-B-04 of the invention also at 3 μg/ml FACS buffer and incubated on ice for 1 hour. Afterwards, plates were centrifuged at 1,500 rpm and 4° C. for 3 minutes and washed twice with 200 μl per well of FACS buffer. […]

Molecule | binding to human iRhom1 on MEF-DKO-hiR1-FL-WT-T7 cells
23-B-04: humanized antibody binding human iRhom2; HCVD SEQ ID NO 25, LCVD SEQ ID NO 29 (antibody, V domains shown, antibody sequences) VH: QVTLRESGPALVKPTQTLTLTCTFSGFSLSTFGMGVGWIRQPPGKALEWLAHIWWDDEKYYNSALKSRLTISKDTSKNQVVLTITNMDPVDTATYYCARISNYGSNYWYFNVWGQGTLVTVSS VL: AIQLTQSPSSLSASVGDRVTITCRASSSVSYMYWYQQKPGKAPKVLIYDTSNLASGVPSRFSGSGSGTDYTLTISSLQPEDFATYYCQQWNAYPLTFGQGTKLEIK | none of these humanized antibodies of the invention recognizes human iRhom1
42-B-04: humanized antibody binding human iRhom2; HCVD SEQ ID NO 41, LCVD SEQ ID NO 45 (antibody, V domains shown, antibody sequences) VH: QVTLRESGPALVKPTQTLTLTCTFSGFSLSTFGRGVGWIRQPPGKALEWLAHIWWDDEKYYNSALKSRLTISKDTSKNQVVLTITNMDPVDTATYYCARIQNYGSNYWYFDVWGQGTLVTVSS VL: AIQLTQSPSSLSASVGDRVTITCRASSRISYMFWYQQKPGKAPKVLIYDTSNLASGVPSRFSGSGSGTDYTLTISSLQPEDFATYYCQQWNAYPLTFGQGTKLEIK | none of these humanized antibodies of the invention recognizes human iRhom1
42-B-02: humanized antibody binding human iRhom2; HCVD SEQ ID NO 33, LCVD SEQ ID NO 37 (antibody, V domains shown, antibody sequences) VH: QVTLRESGPALVKPTQTLTLTCTFSGFSLSTFGRGVGWIRQPPGKALEWLAHIWWDDEKYYNSALKSRLTISKDTSKNQVVLTITNMDPVDTATYYCARIQNYGSNYWYFDVWGQGTLVTVSS VL: AIQLTQSPSSLSASVGDRVTITCRASSRISYMFWYQQKPGKAPKVLIYDTSNLASGVPSRFSGSGSGTDYTLTISSLQPEDFATYYCQQWNSYPLTFGQGTKLEIK | none of these humanized antibodies of the invention recognizes human iRhom1
16-B-03: humanized antibody binding human iRhom2; HCVD SEQ ID NO 1, LCVD SEQ ID NO 5 (antibody, V domains shown, antibody sequences) VH: QVTLRESGPALVKPTQTLTLTCTFSGFSLSTFALGVGWIRQPPGKALEWLAHIWWDDDKYYNPALKSRLTISKDTSKNQVVLTITNMDPVDTATYYCARITTYYYGMDYWGQGTLVTVSS VL: EIVMTQSPDFQSVTPKEKVTITCRASQSIGNHLHWYQQKPDASPKLLIKYASQSISGVPSRFSGSGSGTDFTLTINSLEAEDAATYFCQQSYQWPLTFGQGTKLEIK | no significant binding
16-B-05: humanized antibody binding human iRhom2; HCVD SEQ ID NO 9, LCVD SEQ ID NO 13 (antibody, V domains shown, antibody sequences) VH: QVTLRESGPALVKPTQTLTLTCTFSGFSLSTFALGVGWIRQPPGKALEWLAHIWWDEDKYYNPALKSRLTISKDTSKNQVVLTITNMDPVDTATYYCARITTYYYGMDYWGQGTLVTVSS VL: EIVMTQSPDFQSVTPKEKVTITCRASQSIGNHLHWYQQKPDASPKLLIKYASQSISGVPSRFSGSGSGTDFTLTINSLEAEDAATYFCQQSYNWPLTFGQGTKLEIK | none of these humanized antibodies of the invention recognizes human iRhom1
16-B-07: humanized antibody binding human iRhom2; HCVD SEQ ID NO 17, LCVD SEQ ID NO 21 (antibody, V domains shown, antibody sequences) VH: QVTLRESGPALVKPTQTLTLTCTFSGFSLSTFALGVGWIRQPPGKALEWLAHIWWDEDKYYNPALKSRLTISKDTSKNQVVLTITNMDPVDTATYYCARITTYYYGMDYWGQGTLVTVSS VL: EIVMTQSPDFQSVTPKEKVTITCRASQSIGNHLHWYQQKPDASPKLLIKYASQSISGVPSRFSGSGSGTDFTLTINSLEAEDAATYFCQQSYQWPLTFGQGTKLEIK | none of these humanized antibodies of the invention recognizes human iRhom1
